Test results taken from patent US20260250737A1, “Engineered Luciferases and Luciferin Substrates” (Monod Bio, Inc., priority 2023, published 2026).

Assays:
[1] = Luciferase activity (brightness) of LuxSit-i variants; format: biochemical
LgLux_4039 = molecular target: T1, LgLux_4039; assay: cell-based or functional assay
T1 chain: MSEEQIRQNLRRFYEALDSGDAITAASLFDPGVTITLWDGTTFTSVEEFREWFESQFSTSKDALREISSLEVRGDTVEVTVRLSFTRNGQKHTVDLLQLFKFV

[2] = Luciferase activity (brightness) of LuxSit-i variants; format: biochemical; conditions: relative to LuxSit-i
Description: SSM was performed to evaluate the effect of single mutations on the luciferase activity of LuxSit-i. FIG. 3 graphically presents the mutation frequency at the positions found in the SSM as beneficial for increasing luciferase activity.
FIG. 4A provides data for luciferase activity for MBIO-148, MBIO-158 and Luxsit-i. MBIO-148, MBIO-158, and Luxsit-i were serially diluted starting from a final in-well concentration of 10,000 pM. Each dilution was combined with Diphenylterazine (DTZ) to a final in-well concentration of […]. Points shown are from the initial reading once the plate read was started.
FIG. 4B provides data for luciferase activity for MBIO-148, MBIO-301, MBIO-302, and LuxSit-i. MBIO-148, MBIO-301, MBIO-302, and Luxsit-i were serially diluted starting from a final in-well concentration of 500 pM. Each dilution was combined with DTZ to a final in-well concentration of 10 μM. Points shown are from the initial reading once the plate read was started.

[3] = Stability of LuxSit-i variants (yeast display protease resistance, static light scattering); format: physicochemical; conditions: relative to LuxSit-i
Description: In certain aspects, these polypeptides have improved stability at high temperatures as compared to LuxSit-i. For example, these polypeptides are stable at higher temperatures as compared to LuxSit-i. Stability may be measured by enzymatic activity and/or protein misfolding measured over a period of time. In certain embodiments, stability may be measured using static light scattering (SLS).
A single saturation mutagenesis (SSM) was performed to evaluate by yeast display the effect of single mutations in the stability of LuxSit-i (SEQ ID NO:1). The SSM library was transformed into electrocompetent cells of the strain EBY100. Twenty million cells were labeled with anti-myc FITC antibody in order to detect protein expression on the yeast surface by measuring fluorescence emission. Cells were sorted using a Sony SH800 cell sorter and those showing protein expression (FITC signal) were collected and grown. DNA was extracted from the sorted cells using conventional DNA extraction conventional methods. The DNA library was sequenced using Nanopore technology. Single amino acid substitutions that increase protein stability are enriched after sorting.
(§1) Single saturation mutagenesis (SSM) was performed to evaluate (by yeast display) the effect of single mutations in the stability of LuxSit-i-i. The SSM library was transformed into electrocompetent cells of the strain EBY100. Twenty million cells were labeled with an anti-myc FITC antibody to detect protein expression on the yeast surface by measuring the emission of fluorescence by FITC. Yeast were incubated with a mixture of 3.5 uM trypsin and 1.4 uM chymotrypsin (1/729 dilution of the stock solution) at 25° C. for 15 min. Cells were sorted using a Sony SH800 cell sorter and those showing protein expression (FITC signal) after protease incubation were collected and grown. DNA was extracted from the sorted cells using conventional DNA extraction conventional methods. The DNA library was sequenced using Nanopore technology. Single amino acid substitutions that increase protein stability are enriched after sorting.
as §1, with “LuxSit-i.” for “LuxSit-i-i.”, “antibody in order” for “antibody”, “10” for “3.5”, “4” for “1.4”, “(1/243” for “(1/729”
as §1, with “LuxSit-i.” for “LuxSit-i-i.”, “antibody in order” for “antibody”, “15” for “3.5”, “6” for “1.4”, “(1/162” for “(1/729”, “sorting. […]” for “sorting.”

[4] = Table 3, combined substitutions

B1: MBIO-4039_No Lysine Residues: LuxSit-i variant that lacks lysine residues, SEQ ID NO: 2737 (protein)
chain: MSGMSEEQIRQNLRRFYEALDSGDAITAASLFDPGVTITLWDGTTFTSVEEFREWFESQFSTSRDALREISSLEVRGDTVEVTVRLSFTRNGQRHTVDLLQLFRFVGNRVVAVRVYVNPT
[1]; all lysine residues substituted
  activity of variant that lacks lysine residues: retains activity

## RVVIVRVYVNPTG [MBIO-5343]
LgLux_4039
  Baseline Signal (Normalized by expression): 20200
  Fold change upon Rap addition: 1.8 fold

B2: MBIO-301: LuxSit-i variant F9N, Q64L, A85F, H87R, H99L, T108D, H113Y, W100F; SEQ ID NO 104 (protein)
chain: MSEEQIRQNLRRFYEALDSGDADTAASLFHPGVTIHLWDGVTFTSREEFREWFERLFSTSKDALREIKSLEVRGDTVEVHVQLHFTRNGQKHTVDLTHLFHFRGNRVDEVRVYINPTG
[1]; among mutants from combinatorial library, Table 10
  luciferase activity: highest

B3: MBIO-152: LuxSit-i variant F9S_A85F_H87L_Q64W, SEQ ID NO: 6 (protein)
chain: MSEEQIRQSLRRFYEALDSGDADTAASLFHPGVTIHLWDGVTFTSREEFREWFERLFSTSKDAWREIKSLEVRGDTVEVHVQLHFTLNGQKHTVDLTHHWHFRGNRVTEVRVHINPTG
[2]; [4]
  Brightness improvement: Slight increase
[3]; [4]
  Stability improvement: Slight improvement

B4: MBIO-147: LuxSit-i variant W100F_A85F_H87L, SEQ ID NO: 3 (protein)
chain: MSEEQIRQFLRRFYEALDSGDADTAASLFHPGVTIHLWDGVTFTSREEFREWFERLFSTSKDAQREIKSLEVRGDTVEVHVQLHFTLNGQKHTVDLTHHFHFRGNRVTEVRVHINPTG
[2]; [4]
  Brightness improvement: Increase
[3]; [4]
  Stability improvement: Monomeric

B5: MBIO-150: LuxSit-i variant F9S, SEQ ID NO 73 (protein)
chain: MSEEQIRQSLRRFYEALDSGDADTAASLFHPGVTIHLWDGVTFTSREEFREWFERLFSTSKDAQREIKSLEVRGDTVEVHVQLHATHNGQKHTVDLTHHWHFRGNRVTEVRVHINPTG
[2]; Table 2, single substitutions
  Brightness improvement: No change
[3]; Table 2, single substitutions
  Stability improvement: Monomeric

B6: MBIO-151: LuxSit-i variant F9S_A85F_H87L, SEQ ID NO: 7 (protein)
chain: MSEEQIRQSLRRFYEALDSGDADTAASLFHPGVTIHLWDGVTFTSREEFREWFERLFSTSKDAQREIKSLEVRGDTVEVHVQLHFTLNGQKHTVDLTHHWHFRGNRVTEVRVHINPTG
[2]; [4]
  Brightness improvement: No change
[3]; [4]
  Stability improvement: No change

B7: MBIO-148: LuxSit-i variant W100F_A85F_H87L_Q64W, SEQ ID NO: 2600 (SEQ ID NO 2 in Table 4) (protein)
chain: MSEEQIRQFLRRFYEALDSGDADTAASLFHPGVTIHLWDGVTFTSREEFREWFERLFSTSKDAWREIKSLEVRGDTVEVHVQLHFTLNGQKHTVDLTHHFHFRGNRVTEVRVHINPTG
[2]; [4]
  Brightness improvement: Increase
[3]; [4]
  Stability improvement: Monomeric

B8: MBIO-149: LuxSit-i variant A85F, SEQ ID NO 82 (protein)
chain: MSEEQIRQFLRRFYEALDSGDADTAASLFHPGVTIHLWDGVTFTSREEFREWFERLFSTSKDAQREIKSLEVRGDTVEVHVQLHFTHNGQKHTVDLTHHWHFRGNRVTEVRVHINPTG
[2]; Table 2, single substitutions
  Brightness improvement: Slight increase
[3]; Table 2, single substitutions
  Stability improvement: No change

B9: MBIO-156: LuxSit-i variant H87L, SEQ ID NO 88 (protein)
chain: MSEEQIRQFLRRFYEALDSGDADTAASLFHPGVTIHLWDGVTFTSREEFREWFERLFSTSKDAQREIKSLEVRGDTVEVHVQLHATLNGQKHTVDLTHHWHFRGNRVTEVRVHINPTG
[2]; Table 2, single substitutions
  Brightness improvement: Slight increase
[3]; Table 2, single substitutions
  Stability improvement: No change

B10: MBIO-157: LuxSit-i variant Q64W, SEQ ID NO 47 (protein)
chain: MSEEQIRQFLRRFYEALDSGDADTAASLFHPGVTIHLWDGVTFTSREEFREWFERLFSTSKDAWREIKSLEVRGDTVEVHVQLHATHNGQKHTVDLTHHWHFRGNRVTEVRVHINPTG
[2]; Table 2, single substitutions
  Brightness improvement: Slight increase
[3]; Table 2, single substitutions
  Stability improvement: No change

B11: MBIO-154: LuxSit-i variant F9V_A85F_H87L, SEQ ID NO: 5 (protein)
chain: MSEEQIRQVLRRFYEALDSGDADTAASLFHPGVTIHLWDGVTFTSREEFREWFERLFSTSKDAQREIKSLEVRGDTVEVHVQLHFTLNGQKHTVDLTHHWHFRGNRVTEVRVHINPTG
[2]; [4]
  Brightness improvement: Slight increase
[3]; [4]
  Stability improvement: Slight improvement

B12: MBIO-2466: MBIO-301 variant, H30D H36T H80T H84S H92S H98Q H101R; SEQ ID NO 2703 (protein)
chain: MSEEQIRQNLRRFYEALDSGDADTAASLFDPGVTITLWDGVTFTSREEFREWFERLFSTSKDALREIKSLEVRGDTVEVTVQLSFTRNGQKSTVDLTQLFRFRGNRVDEVRVYINPTG
[1]; relative to MBIO-301
  luciferase activity, higher than MBIO-301: more than 5 ×

B13: MBIO-155: LuxSit-i variant F9V_A85F_H87L_Q64W, SEQ ID NO: 4 (protein)
chain: MSEEQIRQVLRRFYEALDSGDADTAASLFHPGVTIHLWDGVTFTSREEFREWFERLFSTSKDAWREIKSLEVRGDTVEVHVQLHFTLNGQKHTVDLTHHWHFRGNRVTEVRVHINPTG
[2]; [4]
  Brightness improvement: Slight increase
[3]; [4]
  Stability improvement: Slight improvement

B14: MBIO-158: LuxSit-i variant W100F (protein)
chain: MSEEQIRQFLRRFYEALDSGDADTAASLFHPGVTIHLWDGVTFTSREEFREWFERLFSTSKDAQREIKSLEVRGDTVEVHVQLHATHNGQKHTVDLTHHFHFRGNRVTEVRVHINPTG
[2]; Table 2, single substitutions
  Brightness improvement: Slight increase
[3]; Table 2, single substitutions
  Stability improvement: Monomeric

B15: MBIO-3073: MBIO-2466 variant (Table 12), SEQ ID NO:2711 (protein)
chain: MSEEQIRQNLRRFYEALDSGDADTAASLFDPGVTITLWDGTTFTSVEEFREWFERLFSTSKDALREIKSLEVRGDTVEVTVQLSFTRNGQKHTVDLLQLFKFVGNRVVDVRVYTNPTG
[1]; among variants derived from MBIO-2466, Table 12
  luciferase activity: highest

## HVVAVRVYVNPTG [MBIO-5344]
LgLux_4039
  Baseline Signal (Normalized by expression): 23900
  Fold change upon Rap addition: 2 fold
